Source: patent US9394339B2, “Stabilized formulations of peptides and proteins protecting against non-enzymatic degradation” (Lyotropic Therapeutics, Inc., priority 2007, dated 2016)
Entries after “also recorded” stand apart in the source; their conditions may differ. Like-named read-outs stand apart in the source and are kept apart here.

Columns and labels:
[1] = cited from earlier work; for T1/2 (half-life, deamidation): buffer
[2] = test system: decapeptide RCNSGRFNGG-NH2; assay: Decapeptide accelerated stability test, potency of intact peptide by HPLC; format: physicochemical
Method: To begin with, a decapeptide was synthesized by request at the Protein Facility of the Iowa State University Office of Biotechnology, using standard peptide synthesis methodology.
Samples containing this decapeptide were prepared under eight different conditions at two different pH values, pH 7 and 4. […] The preparation of these samples is now described. The ratios indicated are molar ratios of organic anion to decapeptide.
Into a sterile 15 mL plastic centrifuge tube (Corning Incorporated, Corning, N.Y.) was placed 0.0021 g decapeptide (Iowa State University, Ames, Iowa) and 7.0 g sterile water (Spectrum Chemicals Mfg. Corp., Gardena, Calif.). The pH was adjusted using 1.0N HCl (Spectrum Chemicals Mfg. Corp., Gardena, Calif.) to a pH of 4. Into a new 15 mL plastic centrifuge tube was placed 3.5 mL of a pH 4 solution. The pH was adjusted using only the necessary amount of 1.0N NaOH (Spectrum Chemicals Mfg. Corp., Gardena, Calif.) to a final pH of 7.
(anion:asparaginyl molar ratio). […] Into a new 15 mL plastic centrifuge tube was placed 3.5 mL of a pH 4 solution. The pH was adjusted using only the necessary amount of 1.0N NaOH to a final pH of 7.
(§1) Into a new 15 mL plastic centrifuge tube was placed 3.5 mL of a pH 4 solution. The pH was adjusted using only the necessary amount of 1.0N NaOH to a final pH of 7.
as §1, §1
Into a sterile 1.5 mL microcentrifuge tube was placed a 0.5 g portion of each sample condition and were placed at −18° C. This was the initial sample. The remaining pH 4 samples were placed at 65° C. until completion of the experiment. The remaining pH 7 samples were placed at 40° C. until completion of the experiment. […] This was the day 1 sample. The frozen initial and day 1 samples were thawed to room temperature, and assayed using HPLC.
The samples at the various timepoints were then analyzed with HPLC using the following conditions.
System: Schimadzu SCL-10A VP with diode array detector
Column: Phenomenex C18 Luna 5 um, 250×4.6 mm
Mobile Phase: Isocratic 90% (0.1%) TFA in water, 10% (0.08%) TFA in acetonitrile
The potency (mg/mL of intact peptide) was determined by integrating under this peak (performed by the instrument), and normalizing according to a standard run of the decapeptide.
The sample stressing and HPLC were applied as above.
(anion:asparaginyl ratio). Into a sterile 15 mL plastic centrifuge tube was placed 0.0021 g decapeptide, 0.0029 g N-acetyl-D-tryptophan (MP Biomedicals, Solon, Ohio) and 7.0 g sterile water. The pH was adjusted using 1.0N HCl to a pH of 4. Into a new 15 mL plastic centrifuge tube was placed 3.5 mL of a pH 4 solution. The pH was adjusted using only the necessary amount of 1.0N NaOH to a final pH of 7. Since the molar ratio of acetyltryptophan to decapeptide is 6:1, and each decapeptide has two asparaginyl residues, the molar ratio of NAT to asparagine is 3:1.
The pH was adjusted using only the necessary amount of 1.0N NaOH to a final pH of 7.

[3] = accepted approximate value, dilute aqueous solution; cited from earlier work
[4] = aqueous solution, pH 7.4, 37° C., Tris-HCl buffer
[5] = pH 7, 24 hours at 40° C., molar ratio anion:Asn 3

| Compound | T1/10 (time to 10% degradation by deamidation) [1, 4] [days] | further results |
| --- | --- | --- |
| Growth hormone (1HGU): human protein | 7.8 | – |
| Interleukin-8 (1IL8): human protein | 14 | – |
| Interleukin-1 (2I1B): human protein | 43 | – |
| Interleukin-4 (2CYK): human protein | 41 | – |
| O=C1NS(=O)(=O)c2ccccc21 [Saccharin, 2,3-dihydro-3-oxobenzisosulfonazole] | – | Relative potency ([2]; pH 4, 24 hours at 65° C., anion:Asn 10:1): 87%; Relative potency ([2]; pH 7, 24 hours at 40° C., molar ratio anion:Asn 1): 0.080; Relative potency ([2]; pH 7, 24 hours at 40° C., molar ratio anion:Asn 1, listed as saccharin): much less enhancement; Relative potency [2, 5]: 0.008; Relative potency ([2]; pH 7, 24 hours at 40° C., molar ratio anion:Asn 10): 0.523; Relative potency ([2]; pH 7, 24 hours at 40° C., molar ratio anion:Asn 10, listed as saccharin): enhanced stability |
| CC(O)C(=O)O (stereo not shown) [lactic, lactic acid] | – | pKa (first listed) [3]: 3.95 |
| N-acetylgalactosamine-4-sulfatase (1FSU): human protein | 0.93 | – |
| Angiogenin (1A4Y): human protein | 3.2 | – |
| Fibroblast growth factor (2AFG): human protein | 3.2 | – |
| Platelet factor 4-HPF4 (1RHP): human protein | 35 | – |
| Intestinal fatty acid binding protein (3IFB): human protein | – | T1/2 (half-life, deamidation) ([1]; pH 7.4): 7.6 days; T1/10 (time to 10% degradation by deamidation) ([1]; pH 7.4): 1.2 days |
| Lysophospholipase (1LCL): human protein | 2.4 | – |
| C[C@H](CCC(=O)NCC(=O)O)[C@H]1CC[C@H]2[C@@H]3[C@H](O)C[C@@H]4C[C@H](O)CC[C@]4(C)[C@H]3C[C@H](O)[C@]12C [glycocholic] | – | pKa (first listed) [3]: 3.6 |
| Interleukin-6 (1IL6): human protein | 8.5 | – |
| Insulin (2HIU): human protein | – | T1/2 (half-life, deamidation) ([1]; pH 7.4): 260 days; T1/10 (time to 10% degradation by deamidation) ([1]; pH 7.4): 40 days |
| Creatine kinase ( 1QK1): human protein | – | T1/2 (half-life, deamidation) ([1]; pH 7.4): 84 days; T1/10 (time to 10% degradation by deamidation) ([1]; pH 7.4): 13 days |
| Carbonic anhydrase I (1HCB): human protein | 6.8 | – |
| Proinsulin (1EFE): human protein | 17 | – |
| GTP-binding protein (1DOA): human protein | 6.8 | – |
| Homeobox protein PAX-6 (6PAX): human protein | 5.9 | – |
| Mitogen-activated protein kinase P38 (1WFC): human protein | 17 | – |

| Compound | T1/10 (time to 10% degradation by deamidation) [1, 4] [days] | further results |
| --- | --- | --- |
| Peptidyl-prolyl cis-trans isomerase (1F8A): human protein | 0.36 | – |
| CCCCCCCC/C=C\CCCCCCCC(=O)O [oleic] | – | pKa (first listed) [3]: 4.5 |
| CC(=O)N[C@H](Cc1c[nH]c2ccccc12)C(=O)O [N-acetyltryptophanate, N-acetyl-D-tryptophan] | – | potency remaining ([2]; pH 4, stressed at 65° C., anion:Asn 3:1): 74%; Relative potency [2, 5]: 1.028; Relative potency ([2]; pH 7, 24 hours at 40° C., molar ratio anion:Asn 3, listed as N-acetyltryptophan): completely retained; also recorded: no detectable degradation; pKa (first listed) [3]: 3.37 |
| 1-Antitrypsin (1QLP): human protein | 6.1 | – |
| Cl [Hydrochloric, hydrochloric acid] | – | potency remaining ([2]; pH 7, 24 hours at 40° C., HCl control, no organic anion, listed as HCl): less than 7%; potency remaining ([2]; pH 7, 24 hours at 40° C., HCl control, no organic anion, listed as hydrochloric acid control): under 7% |
| Malic enzyme (1EFK): human protein | – | T1/2 (half-life, deamidation) ([1]; pH 7.4): 140 days; T1/10 (time to 10% degradation by deamidation) ([1]; pH 7.4): 21 days |
| Triose phosphate isomerase (1HTI): human protein | 7.9 | – |
| Interleukin-10 (2ILK): human protein | 3.8 | – |
| C[C@H](CCC(=O)O)[C@H]1CC[C@H]2[C@@H]3CC[C@@H]4C[C@H](O)CC[C@]4(C)[C@H]3C[C@H](O)[C@]12C [deoxycholic, deoxycholic acid] | – | pKa (first listed) [3]: 5.7 |
| Transforming growth factor-two (1KLA): human protein | 70 | – |
| NAD(P)H dehydrogenase (1QBG): human protein | 53 | – |
| Argininosuccinate lyase (1AOS): human protein | 13 | – |
| Stem cell factor (1EXZ): human protein | 27 | – |
| D-Glyceraldehyde-3-phosphate dehydrogenase (3GPD): human protein | – | T1/2 (half-life, deamidation) ([1]; pH 7.4): 4.2 days; T1/10 (time to 10% degradation by deamidation) ([1]; pH 7.4): 0.64 days |
| Growth hormone receptor (1A22): human protein | 0.36 | – |
| Annexin V (1ANX): human protein | 33 | – |
| Cyclophilin A (1AWQ): human protein | 1.3 | – |
| Apoptosis regulator bax (1F16): human protein | 26 | – |
| -Chymotrypsinogen (1CGI): human protein | 2.4 | – |
| O=C(O)/C=C\C(=O)O [maleic] | – | pKa (first listed) [3]: 3.9 |
